# B1: CPEB3 Ribozyme (parent)
# chain: UAACAGGGGGCCACAGCAGAAGCGUUCACGUCGCAGCCCCUGUCAGAUUCUGGUGAAUCUGCGAAUUCUGCUGUAUAUCUC
# Variants of: B1
# Assay: self-cleavage, relative activity (ratio to wild type); higher = more cleavage; in vitro, sequencing
# Method in brief: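 Barcoded CPEB3 ribozyme mutants, produced by rounds of error-prone PCR, self-cleaved while being transcribed with T7 RNA polymerase for 5 hours at 37°C and during a subsequent 15 min DNase I step before EDTA was added. Sequencing of template-switched cDNA on Illumina gave cleaved and total reads, and DNA sequencing assigned barcodes to variants. Each variant's relative activity is its cleaved/total read fraction divided by the unmutated ribozyme's fraction, averaged across three batches. A variant needed a minimum of 5 reads.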
row,Variant,self-cleavage
1,UAACAGGGGGCCACAGCAGAAGCGUUCACGUCGCAGCCCCUGUCAGAUGCCGGUGAAUCUGCGAAUUCUGCUGUAUAUCUC,0.63
2,UAACAGGGGGCCACAGCAGAAGCGUUCACGUCGCAGCCCCUGUCAGAUCCUGGUGAAUCUGCGAAUUCUGCUGGAUAUCUC,0.59
3,UAACAGGGGGCCACAGCAGAAGCGUUCACGUCGCAGCCCCUGUCAGAUCCUGGUGAAUCUGCGAAUUCUGCUGCAUAUCUC,0.65
4,UAACAGGGGGCCACAGCAGAAGCGUUCACGUCGCAGCCCCUGUCAGAUCCUGGUGAAUCUGCGAAUUCUGCUGAAUAUCUC,0.71
5,UAACAGGGGGCCACAGCAGAAGCGUUCACGUCGCAGCCCCUGUCAGAUUAUGGUGAAUCAGCGAAUUCUGCUGUAUAUCUC,0.27
6,UAACAGGGGGCCACAGCAGAAGCGUUCACGUCGCAGCCCCUGUCAGAUCCUGGUGAAUCUGCGAAUUCUGCCGUAUAUCUC,0.36
7,UAACAGGGGGCCACAGCAGAAGCGUUCACGUCGCAGCCCCUGUCAGAUCCUGGUGAAUCUGCGAAUUCUGCGGUAUAUCUC,0.26
8,UAACAGGGGGCCACAGCAGAAGCGUUCACGUCGCAGCCCCUGUCAGAUCCUGGUGAAUCUGCGAAUUCUGCAGUAUAUCUC,0.26
9,UAACAGGGGGCCACAGCAGAAGCGUUCACGUCGCAGCCCCUGUCAGAUUAUGGUGAAUCUGCGCAUUCUGCUGUAUAUCUC,0.43
10,UAACAGGGGGCCACAGCAGAAGCGUUCACGUCGCAGCCCCUGUCAGAUUAUGGUGAAUCUGCGGAUUCUGCUGUAUAUCUC,0.73
11,UAACAGGGGGCCACAGCAGAAGCGUUCACGUCGCAGCCCCUGUCAGAUGCUGGUGAAUCUGCGAAUCCUGCUGUAUAUCUC,0.31
12,UAACAGGGGGCCACAGCAGAAGCGUUCACGUCGCAGCCCCUGUCAGAUGCUGGUGAAUCUGCGAAUUCAGCUGUAUAUCUC,0.36
13,UAACAGGGGGCCACAGCAGAAGCGUUCACGUCGCAGCCCCUGUCAGAUGCUGGUGAAUCUGCGAAUUCCGCUGUAUAUCUC,0.21
14,UAACAGGGGGCCACAGCAGAAGCGUUCACGUCGCAGCCCCUGUCAGAUUAUGGUGAAUCUGCGAAUUCUGCUGUAUUUCUC,0.67
15,UAACAGGGGGCCACAGCAGAAGCGUUCACGUCGCAGCCCCUGUCAGAUCCUGGUGAAUCAGCGAAUUCUGCUGUAUAUCUC,0.22
16,UAACAGGGGGCCACAGCAGAAGCGUUCACGUCGCAGCCCCUGUCAGAUCCUGGUGAAUCCGCGAAUUCUGCUGUAUAUCUC,0.22
17,UAACAGGGGGCCACAGCAGAAGCGUUCACGUCGCAGCCCCUGUCAGAUCCUGGUGAAUCGGCGAAUUCUGCUGUAUAUCUC,0.13

row,Variant,self-cleavage
1,UAACAGGGGGCCACAGCAGAAGCGUUCACGUCGCAGCCCCUGUCAGAUGCUGGUGAACCUGCGAAUUCUGCUGUAUAUCUC,0.2
2,UAACAGGGGGCCACAGCAGAAGCGUUCACGUCGCAGCCCCUGUCAGAUCCGGGUGAAUCUGCGAAUUCUGCUGUAUAUCUC,0.36
3,UAACAGGGGGCCACAGCAGAAGCGUUCACGUCGCAGCCCCUGUCAGAUCCCGGUGAAUCUGCGAAUUCUGCUGUAUAUCUC,0.38
4,UAACAGGGGGCCACAGCAGAAGCGUUCACGUCGCAGCCCCUGUCAGAUUAUGGAGAAUCUGCGAAUUCUGCUGUAUAUCUC,0.88
5,UAACAGGGGGCCACAGCAGAAGCGUUCACGUCGCAGCCCCUGUCAGAUUAUGGCGAAUCUGCGAAUUCUGCUGUAUAUCUC,0.83
6,UAACAGGGGGCCACAGCAGAAGCGUUCACGUCGCAGCCCCUGUCAGAUUAUGGUGAAUCUGCGAAUUCUGCUAUAUAUCUC,1.24
7,UAACAGGGGGCCACAGCAGAAGCGUUCACGUCGCAGCCCCUGUCAGAUGCUGGUUAAUCUGCGAAUUCUGCUGUAUAUCUC,0.88
8,UAACAGGGGGCCACAGCAGAAGCGUUCACGUCGCAGCCCCUGUCAGAUGCUGGUGAAUCCGCGAAUUCUGCUGUAUAUCUC,0.23
9,UAACAGGGGGCCACAGCAGAAGCGUUCACGUCGCAGCCCCUGUCAGAUCCUGGUGAAUCUGCGAAUUCGGCUGUAUAUCUC,0.25
10,UAACAGGGGGCCACAGCAGAAGCGUUCACGUCGCAGCCCCUGUCAGAUCCUGGUGAAUCUGCGAAUUCCGCUGUAUAUCUC,0.31
11,UAACAGGGGGCCACAGCAGAAGCGUUCACGUCGCAGCCCCUGUCAGAUCCUGGUGAAUCUGCGAAUUCAGCUGUAUAUCUC,0.25
12,UAACAGGGGGCCACAGCAGAAGCGUUCACGUCGCAGCCCCUGUCAGAUUAUGGUGAAUCUGCGAAUUCUGCUGUAUAUCUC,0.88
13,UAACAGGGGGCCACAGCAGAAGCGUUCACGUCGCAGCCCCUGUCAGAUCCUGGUGAAUCUGCGAAUUCUGCUGUAUAGCUC,0.39
14,UAACAGGGGGCCACAGCAGAAGCGUUCACGUCGCAGCCCCUGUCAGAUCCUGGUGAAUCUGCGAAUUCUGCUGUAUACCUC,0.42
15,UAACAGGGGGCCACAGCAGAAGCGUUCACGUCGCAGCCCCUGUCAGAUCCUGGUGAAUCUGCGAAUUCUGCUGUAUAACUC,0.46
16,UAACAGGGGGCCACAGCAGAAGCGUUCACGUCGCAGCCCCUGUCAGAUGCUGGUGAAUCUGCGAAUUCUGCUGUAUAUCUC,0.52
17,UAACAGGGGGCCACAGCAGAAGCGUUCACGUCGCAGCCCCUGUCAGAUGCUGGUGAAUCUGCGAAUUCUGCCGUAUAUCUC,0.72

# Reference: the RNAGym collection of RNA variant scans (doi:10.1093/nar/gkz1192)
